These results are taken from patent US20240400715A1 (VIBRANT PHARMA, published 2024).

Series [1] has as its target T1, human CEA (CEACAM5) on tumor cells (human, UniProt P06731 35-702).
T1 sequence (looked up): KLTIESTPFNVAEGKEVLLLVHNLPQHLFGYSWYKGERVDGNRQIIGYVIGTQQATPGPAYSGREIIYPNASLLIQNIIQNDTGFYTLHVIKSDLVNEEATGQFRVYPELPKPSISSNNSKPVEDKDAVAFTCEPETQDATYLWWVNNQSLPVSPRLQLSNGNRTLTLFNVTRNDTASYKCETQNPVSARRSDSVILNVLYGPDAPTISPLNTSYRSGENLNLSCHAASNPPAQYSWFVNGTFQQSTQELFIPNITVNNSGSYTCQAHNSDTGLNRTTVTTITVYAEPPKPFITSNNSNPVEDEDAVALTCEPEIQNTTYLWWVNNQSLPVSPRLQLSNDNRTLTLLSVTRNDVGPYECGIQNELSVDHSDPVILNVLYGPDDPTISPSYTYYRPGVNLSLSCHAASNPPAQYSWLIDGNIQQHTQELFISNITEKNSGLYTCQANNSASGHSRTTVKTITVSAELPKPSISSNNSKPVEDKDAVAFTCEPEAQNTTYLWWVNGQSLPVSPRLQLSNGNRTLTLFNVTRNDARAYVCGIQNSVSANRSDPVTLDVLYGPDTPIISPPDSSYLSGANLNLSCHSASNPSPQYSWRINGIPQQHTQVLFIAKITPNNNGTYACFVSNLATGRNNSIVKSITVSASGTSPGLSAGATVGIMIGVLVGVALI
The series is described as follows: cell-based or functional assay.

Series [2] addresses T1, human CEA (CEACAM5) on tumor cells. The series is described as follows: cell-based or functional assay. This is another data set of the same source.
In series [3] the target is T2, keyhole limpet haemocyanin (KLH, Sigma, H8283) (keyhole limpet, UniProt Q10583 17-3414; Q10584 20-3421, limits assumed).
T2 construct: Bought preparation coated on the plate in the polyspecificity ELISA
The series is described as follows: ELISA, KLH coated at 5 ug/mL, 100 nM antibody, anti-human IgG-HRP.
Method: (§1) (1) Antigen coating: cardiolipin (Sigma, cat. C0563), keyhole limpet haemocyanin (KLH, Sigma, H8283), LPS (Sigma, L6529), ssDNA (Sigma, D8899), dsDNA (Sigma, D4522) and Insulin (abs42019847) were plated at 50 μg/mL, 5 μg/mL, 10 μg/mL, 1 μg/mL, 1 μg/mL, g/mL, and 50 μL per well, and incubated at 4° C. overnight;
(§2) (4) 50 μl anti-human IgG-HRP conjugate (Sigma, AP113P, 1:8000 dilution) was added to each well; the plate was incubated for 1 h at room temperature and washed 6 times with 0.05% PBST;

For the next series, the target named is T3, Insulin (abs42019847).
T3 construct: Coated on the plate in the polyspecificity ELISA
In words: ELISA, insulin coated on the plate, 100 nM antibody, anti-human IgG-HRP.

Series [4] deals with the molecule itself. In words: BLI self-interaction: antibody captured on AHQ anti-human Fc sensor, free sites blocked with human IgG, same antibody in solution.
Method: The bispecific antibodies were diluted to 1 μM, and the proteins were coupled to the surface of the AHQ sensor chip in PBS, and the signal value was ˜0.8 nm. […] The experimental parameters are as follows: Baseline1: 60s, Loading: 180s, Loading response: 0.8 nm, Baseline2: 180s, Association: 240s, High sensitivity kinetics: 2 Hz.
Series [5] concerns the target T4, human HER2 on tumor cells (human, UniProt P04626 23-1255). The series is described as follows: cell-based or functional assay.
Series [6] has as its target T4, human HER2 on tumor cells. The series is described as follows: cell-based or functional assay. This is another data set of the same source.
In series [7] the target is T5, recombinant tumor antigen human HER2 (ERBB2, ACRO systems, HE2-H5212) (human, UniProt P04626 23-652).
T5 construct: Bought recombinant protein
The series is described as follows: BLI (Octet RED96e), antibody captured on AHC anti-human Fc sensor, HER2 as analyte, 30 C, 1:1 fit.
From the text: After the chip captures the bispecific antibodies, it was allowed to bind and dissociate with different concentrations of analytes to obtain the KD value of the interaction. The experimental parameters are as follows: Baseline1: 60s, Loading: 240s, Baseline2: 180s, Association: 240s, Dissociation: 600s, Loading Response: 1.9-2.1 (nm), High sensitivity kinetics: 2 Hz. Kinetic constants were derived based on 1:1 Langmuir binding to obtain equilibrium dissociation constants (KD).

Method for Insulin (abs42019847): as §1, §2

B1: bispecific antibody 104 (CEA-Knob+Fab-Hole) (bispecific antibody, human IgG4 S228P, kappa, F234A L235A)
chain: EVQLVESGGGFVQAGESLTLSCTSSTLTFTPYRMAWYRQAPGKQRDLVADISSGDGRTTNYADFAKGRFTISRDNIKNTVFLRMTNLKPEDTAVYYCNTFVSFVGIARSWGQGTQVTVSSESKYGPPCPPCPAPEAAGGPSVFLFPPKPKDTLMISRTPEVTCVVVDVSQEDPEVQFNWYVDGVEVHNAKTKPREEQFNSTYRVVSVLTVLHQDWLNGKEYKCKVSNKGLPSSIEKTISKAKGQPREPQVYTLPPCQEEMTKNQVSLWCLVKGFYPSDIAVEWESNGQPENNYKTTPPVLDSDGSFFLYSRLTVDKSRWQEGNVFSCSVMHEALHNHYTQKSLSLSL
heavy: EVKLLESGGGLVQPKGSLKLSCAASGFTFNTYAMNWVRQAPGKGLEWVARIRSKYNNYATYYADSVKDRFTISRDDSQSILYLQMNNLKTEDTAMYYCVRHGNFGNSYVSWFAYWGQGTLVTVSSASTKGPSVFPLAPCSRSTSESTAALGCLVKDYFPEPVTVSWNSGALTSGVHTFPAVLQSSGLYSLSSVVTVPSSSLGTKTYTCNVDHKPSNTKVDKRVESKYGPPCPPCPAPEAAGGPSVFLFPPKPKDTLMISRTPEVTCVVVDVSQEDPEVQFNWYVDGVEVHNAKTKPREEQFNSTYRVVSVLTVLHQDWLNGKEYKCKVSNKGLPSSIEKTISKAKGQPREPQVCTLPPSQEEMTKNQVSLSCAVKGFYPSDIAVEWESNGQPENNYKTTPPVLDSDGSFFLVSRLTVDKSRWQEGNVFSCSVMHEALHNRFTQKSLSLSL
light: QAVVTQESALTTSPGETVTLTCRSSTGAVTTSNYANWVQEKPDHLFTGLIGGTNKRAPGVPARFSGSLIGDKAALTITGAQTEDEAIYFCALWYSNLWVFGGGTKVEIKRTVAAPSVFIFPPSDEQLKSGTASVVCLLNNFYPREAKVQWKVDNALQSGNSQESVTEQDSKDSTYSLSSTLTLSKADYEKHKVYACEVTHQGLSSPVTKSFNRGEC
notes: Human IgG4 Fc with knob-into-hole, kappa light chain
In the case of B1, in series [1], the “EC50 of tumor cell killing, MDA-MB-468 cells with human PBMC (E:T 10:1, 3 days, CCK8)” value is 0.672 nM; the “EC50 of tumor cell killing, NCI-H1573 cells with human PBMC (E:T 10:1, 3 days, CCK8)” value came out at 0.00384 nM; the “EC50 of tumor cell killing, SK-OV-3 cells with human PBMC (E:T 10:1, 3 days, CCK8)” value stood at 0.987 nM. In addition, in series [2], the “EC50 of tumor cell killing, MCF-7 cells with human PBMC (E:T 10:1, 3 days, CCK8)” value came out at 8.63 nM; the “EC50 of tumor cell killing, MDA-MB-453 cells with human PBMC (E:T 10:1, 3 days, CCK8)” value is 1.96 nM; the “EC50 of tumor cell killing, N87 cells with human PBMC (E:T 10:1, 3 days, CCK8)” value was 0.0972 nM. Also, the “Absorbance value (450 nm, polyspecificity ELISA)” value (“Absorbance value” for short) in series [3] was found to be 1.08. In the series with Insulin (abs42019847), the “Absorbance value” value was 2.88. Also, in series [4], the “BLI-Response (self-interaction signal)” value was found to be 0.22 nm.

B2: HER2-CD3 bispecific antibody 501 (bispecific antibody, human IgG4 S228P, kappa, F234A L235A)
heavy: EVKLLESGGGLVQPKGSLKLSCAASGFTFNTYAMNWVRQAPGKGLEWVARIRSKYNNYATYYADSVKDRFTISRDDSQSILYLQMNNLKTEDTAMYYCVRHGNFGNSYVSWFAYWGQGTLVTVSSASTKGPSVFPLAPCSRSTSESTAALGCLVKDYFPEPVTVSWNSGALTSGVHTFPAVLQSSGLYSLSSVVTVPSSSLGTKTYTCNVDHKPSNTKVDKRVESKYGPPCPPCPAPEAAGGPSVFLFPPKPKDTLMISRTPEVTCVVVDVSQEDPEVQFNWYVDGVEVHNAKTKPREEQFNSTYRVVSVLTVLHQDWLNGKEYKCKVSNKGLPSSIEKTISKAKGQPREPQVYTLPPCQEEMTKNQVSLWCLVKGFYPSDIAVEWESNGQPENNYKTTPPVLDSDGSFFLYSRLTVDKSRWQEGNVFSCSVMHEALHNHYTQKSLSLSL
chain: QVQLVQSGGGLVQAGGSLRLSCAASGRTFSSYAMAWFRQAPGKEREFVAAISWSGANIYVADSVKGRFTISRDNAKDTVYLQMNSLKPEDTAVYYCAVKLGFAPVEERQYDYWGQGTQVTVSSESKYGPPCPPCPAPEAAGGPSVFLFPPKPKDTLMISRTPEVTCVVVDVSQEDPEVQFNWYVDGVEVHNAKTKPREEQFNSTYRVVSVLTVLHQDWLNGKEYKCKVSNKGLPSSIEKTISKAKGQPREPQVCTLPPSQEEMTKNQVSLSCAVKGFYPSDIAVEWESNGQPENNYKTTPPVLDSDGSFFLVSRLTVDKSRWQEGNVFSCSVMHEALHNRFTQKSLSLSL
light: QAVVTQESALTTSPGETVTLTCRSSTGAVTTSNYANWVQEKPDHLFTGLIGGTNKRAPGVPARFSGSLIGDKAALTITGAQTEDEAIYFCALWYSNLWVFGGGTKVEIKRTVAAPSVFIFPPSDEQLKSGTASVVCLLNNFYPREAKVQWKVDNALQSGNSQESVTEQDSKDSTYSLSSTLTLSKADYEKHKVYACEVTHQGLSSPVTKSFNRGEC
Consider B2, for which, in series [5], the “EC50 of tumor cell killing, MDA-MB-468 cells with human PBMC (E:T 10:1, 3 days, CCK8)” value was 1.79 nM; the “EC50 of tumor cell killing, NCI-H1573 cells with human PBMC (E:T 10:1, 3 days, CCK8)” value came to 0.0405 nM; the “EC50 of tumor cell killing, NCI-H1650 cells with human PBMC (E:T 10:1, 3 days, CCK8)” value is 1.59 nM; the “EC50 of tumor cell killing, NCI-H2228 cells with human PBMC (E:T 10:1, 3 days, CCK8)” value came out at 10.2 nM. In addition, in series [5], the “EC50 of tumor cell killing, SK-OV-3 cells with human PBMC (E:T 10:1, 3 days, CCK8)” value was found to be 0.0198 nM. Also, in series [6], the “EC50 of tumor cell killing, MCF-7 cells with human PBMC (E:T 10:1, 3 days, CCK8)” value was determined as 8.29 nM; the “EC50 of tumor cell killing, MDA-MB-453 cells with human PBMC (E:T 10:1, 3 days, CCK8)” value stood at 4.05 nM; the “EC50 of tumor cell killing, N87 cells with human PBMC (E:T 10:1, 3 days, CCK8)” value stood at 1.32 nM; the “EC50 of tumor cell killing, NCI-H157 cells with human PBMC (E:T 10:1, 3 days, CCK8)” value is 36.2 nM. Moreover, in series [6], the “EC50 of tumor cell killing, NCI-H441 cells with human PBMC (E:T 10:1, 3 days, CCK8)” value came out at 0.152 nM. Further, the “Absorbance value” value in series [3] is 1.45. In the series with Insulin (abs42019847), the “Absorbance value” value worked out at 1.52. Also, in series [7], the Kd was determined as 13.1 nM, the off-rate (koff) was determined as 0.00349 s⁻¹ and the association rate constant (kon) came to 266000 M⁻¹ s⁻¹. The “BLI-Response (self-interaction signal)” value in series [4] is 0.056 nm.
